Data as given in article PMC5760710, “The evolution of substrate discrimination in macrolide antibiotic resistance enzymes” (Nature Communications, 2018).
In brackets after ≈: the same amount, converted by molar mass.

How the values were obtained:
[1] = test system: T1, E. coli BW25113 ΔbamBΔtolC; assay: microbe, parasite or virus in culture; settings: Escherichia coli, BW25113, 24 h; empty vector
T1 construct: BW25113 ΔbamBΔtolC empty vector pGDP4
Experimental: mphB was codon optimized, synthetized as a gBlock (IDT) and cloned into pET28a with an N-terminal histidine tag. The codon optimized mphB sequence is in Supplementary Table 17. mphI was previously cloned into pET22b[36]. pGDP4 is a derivative of pET28a with the multiple-cloning site under the control of the constitutive lac promoter. mphI was subcloned into pGDP4 using the XbaI and XhoI restriction sites. E. coli was routinely cultured on LB-Lennox (Bioshop) at 37 °C overnight, and either 100 µg mL^−1 ampicillin or 50 µg mL^−1 kanamycin was used for plasmid selection. E. coli TOP10 (Invitrogen) was used for routine cloning experiments and susceptibility testing of mphs cloned into pGDP4. E. coli BL21(DE3) (Stratagene, USA)was used for protein overexpression experiments. E. coli BW25113 ΔbamBΔtolC is an antibiotic hypersensitive, and was used for susceptibility testing of Mphs cloning into pGDP4. Antibiotic susceptibility testing was performed according to the Clinical and Laboratory Standards Institute guidelines[74] for determining minimal inhibitory concentration (MIC) in 96-well plates (Sarstedt, Germany) in duplicate. MIC values were reproducible. A saline suspension of OD600 of 0.1 was made from 2–3 colonies of a fresh overnight, and diluted 1:200 into Mueller-Hinton Broth (BD Biosciences). […] Susceptibility assays were performed at least two independent times.

MphH = target: T2, MphH (Brachybacterium faecium, UniProt C7MEP1); assay: X-ray crystal structure; type: binding
T2 construct: pMCSG53, N-terminal His6 tag and TEV site, crystallized

MphI = test system: T3, MphI; assay: PK/LDH-coupled continuous assay; type: biochemical, Paenibacillus sp. LC231; settings: 10 mM MgCl2, 40 mM KCl, pH 7.5
T3 construct: full-length, His-tagged in pET22b, expressed in E. coli BL21(DE3), Ni-NTA purified; primers span nt 1-927

MphB = target: T4, MphB (Escherichia coli, UniProt A0A0H3EUF3); assay: biochemical; set-up: PK/LDH-coupled continuous assay of macrolide phosphorylation; steady-state kinetics, NADH absorbance
T4 construct: codon-optimized gene, N-terminal His tag in pET28a, expressed in E. coli BL21(DE3), Ni-NTA purified
Experimental: (§1) Steady-state kinetics for Mphs were measured using the continuous PK/LDH-coupled assay[27],[32],[36],[71]. Reactions were performed in 96-well plates (Nunc, Thermo Scientific) using Spectramax Plus384 (Molecular Devices) in duplicate. Individual reactions were 100 µL and contained 50 mM HEPES pH 7.5, 40 mM KCl, 10 mM MgCl2, 0.2 mM NADH, 3.5 mM PEP, and 4.8 U PK/LDH (pyruvate kinase/lactate dehydrogenase). […] For determining the Km for macrolides, GTP was maintained at 200 µM and macrolides were varied between 0.49 µM and 1000 µM. Enzyme efficiency varied considerably between substrates, and therefore some enzymes were used at different concentrations depending on the substrate in order to produce a linear range suitable for Km determination. These concentrations were as follows; MphB 140 nM (most substrates), MphB 36 nM (josamycin), MphI 45 nM (descladinose macrolides), MphI 1.44 µM (C3 cladinose macrolides), Azi_1.1 90 nM (all substrates), Ery_1 (all substrates), MphK 680 nM (all substrates), MphIS111R/T166E/P211L 90 nM (descladinose macrolides), MphIS111R/T166E/P211L 1.43 µM (C3 cladinose macrolides), MphIM40A/S111R/T166E 22 nM (descladinose macrolides), MphIM40A/S111R/T166E 430 nM (C3 cladinose macrolides), MphIS111R/T166E 22 nM (descladinose macrolides), MphIS111R/T166E 1.43 µM (C3 cladinose macrolides). Enzyme kinetics experiments were performed at least two independent times. Steady-state kinetics of Mphs

[2] = test system: Nc1nc2c(ncn2[C@@H]2O[C@H](COP(=O)(O)OP(=O)(O)OP(=O)(O)O)[C@@H](O)[C@H]2O)c(=O)[nH]1; assay: PK/LDH-coupled continuous assay; type: biochemical, Escherichia coli; settings: 100 uM telithromycin, 10 mM MgCl2, 40 mM KCl, pH 7.5
[3] = test system: CC[C@H]1OC(=O)[C@H](C)[C@@H](O[C@H]2C[C@@](C)(OC)[C@@H](O)[C@H](C)O2)[C@H](C)[C@@H](O[C@@H]2O[C@H](C)C[C@H](N(C)C)[C@H]2O)[C@](C)(O)C[C@@H](C)CN(C)[C@H](C)[C@@H](O)[C@]1(C)O; assay: PK/LDH-coupled continuous assay; type: biochemical, Escherichia coli; settings: 200 uM GTP, 10 mM MgCl2, 40 mM KCl, pH 7.5
[4] = test system: CC[C@H]1OC(=O)[C@H](C)C(=O)[C@H](C)[C@@H](O[C@@H]2O[C@H](C)C[C@H](N(C)C)[C@H]2O)[C@](C)(OC)C[C@@H](C)C(=O)[C@H](C)[C@H]2N(CCCCn3cnc(-c4cccnc4)c3)C(=O)O[C@]12C; assay: PK/LDH-coupled continuous assay; type: biochemical, Escherichia coli; settings: 200 uM GTP, 10 mM MgCl2, 40 mM KCl, pH 7.5
[5] = test system: CC[C@H]1OC(=O)[C@H](C)[C@@H](O[C@H]2C[C@@](C)(OC)[C@@H](O)[C@H](C)O2)[C@H](C)[C@@H](O[C@@H]2O[C@H](C)C[C@H](N(C)C)[C@H]2O)[C@](C)(O)C[C@@H](C)C(=O)[C@H](C)[C@@H](O)[C@]1(C)O; assay: PK/LDH-coupled continuous assay; type: biochemical, Escherichia coli; settings: 200 uM GTP, 10 mM MgCl2, 40 mM KCl, pH 7.5
[6] = test system: CC[C@H]1OC(=O)C[C@@H](O)[C@H](C)[C@@H](O[C@@H]2O[C@H](C)[C@@H](O[C@H]3C[C@@](C)(O)[C@@H](O)[C@H](C)O3)[C@H](N(C)C)[C@H]2O)[C@@H](CC=O)C[C@@H](C)C(=O)/C=C/C(C)=C/[C@@H]1CO[C@@H]1O[C@H](C)[C@@H](O)[C@@H](OC)[C@H]1OC; assay: purified protein, by the assay type; set-up: continuous PK/LDH-coupled NADH kinase assay, steady-state Km, macrolide or GTP varied; settings: pH 7.5
Experimental: as §1, with “times.” for “times. Steady-state kinetics of Mphs”

[7] = test system: CC[C@H]1OC(=O)[C@H](C)[C@@H](O[C@H]2C[C@@](C)(OC)[C@@H](O)[C@H](C)O2)[C@H](C)[C@@H](O[C@@H]2O[C@H](C)C[C@H](N(C)C)[C@H]2O)[C@](C)(O)C[C@@H](C)/C(=N\OCOCCOC)[C@H](C)[C@@H](O)[C@]1(C)O; assay: purified protein, by the assay type; set-up: continuous PK/LDH-coupled NADH kinase assay, steady-state Km, macrolide or GTP varied; settings: pH 7.5
Experimental: as §1, with “times.” for “times. Steady-state kinetics of Mphs”

[8] = test system: Nc1nc2c(ncn2[C@@H]2O[C@H](COP(=O)(O)OP(=O)(O)OP(=O)(O)O)[C@@H](O)[C@H]2O)c(=O)[nH]1; assay: PK/LDH-coupled continuous assay; type: biochemical, Bacillus subtilis; settings: 100 uM telithromycin, 10 mM MgCl2, 40 mM KCl, pH 7.5
[9] = test system: CC[C@H]1OC(=O)[C@H](C)[C@@H](O[C@H]2C[C@@](C)(OC)[C@@H](O)[C@H](C)O2)[C@H](C)[C@@H](O[C@@H]2O[C@H](C)C[C@H](N(C)C)[C@H]2O)[C@](C)(O)C[C@@H](C)CN(C)[C@H](C)[C@@H](O)[C@]1(C)O; assay: PK/LDH-coupled continuous assay; type: biochemical, Bacillus subtilis; settings: 200 uM GTP, 10 mM MgCl2, 40 mM KCl, pH 7.5
[10] = test system: CC[C@H]1OC(=O)[C@H](C)C(=O)[C@H](C)[C@@H](O[C@@H]2O[C@H](C)C[C@H](N(C)C)[C@H]2O)[C@](C)(OC)C[C@@H](C)C(=O)[C@H](C)[C@H]2N(CCCCn3cnc(-c4cccnc4)c3)C(=O)O[C@]12C; assay: PK/LDH-coupled continuous assay; type: biochemical, Bacillus subtilis; settings: 200 uM GTP, 10 mM MgCl2, 40 mM KCl, pH 7.5

CC[C@H]1OC(=O)[C@H](C)[C@@H](O[C@H]2C[C@@](C)(OC)[C@@H](O)[C@H](C)O2)[C@H](C)[C@@H](O[C@@H]2O[C@H](C)C[C@H](N(C)C)[C@H]2O)[C@](C)(OC)C[C@@H](C)C(=O)[C@H](C)[C@@H](O)[C@]1(C)O [Clarithromycin]
MIC [1]: 0.5 µg/mL (≈ 0.668 µM)

Nc1nc2c(ncn2[C@@H]2O[C@H](COP(=O)(O)OP(=O)(O)O)[C@@H](O)[C@H]2O)c(=O)[nH]1 [GDP]
X-ray crystal structure (MphH; nucleotide site, GDP + Pi, crystallized with 5 mM azithromycin and 5 mM GMPPCP): MphH (native) GDP + Pi complex (5UXC)

Nc1nc2c(ncn2[C@@H]2O[C@H](COP(=O)(O)OP(=O)(O)OP(=O)(O)O)[C@@H](O)[C@H]2O)c(=O)[nH]1 [GTP]
Km (MphI; 100 uM telithromycin): 10 ± 1 µM

NC[C@H]1O[C@H](O[C@H]2[C@H](O)[C@@H](O[C@H]3O[C@H](CO)[C@@H](O)[C@H](N)[C@H]3O)[C@H](N)C[C@@H]2N)[C@H](O)[C@@H](O)[C@@H]1O [Kanamycin]
MIC [1]: 1 µg/mL (≈ 2.06 µM)

CC[C@H]1OC(=O)C[C@@H](O)[C@H](C)[C@@H](O[C@@H]2O[C@H](C)[C@@H](O[C@H]3C[C@@](C)(O)[C@@H](O)[C@H](C)O3)[C@H](N(C)C)[C@H]2O)[C@@H](CC=O)C[C@@H](C)C(=O)/C=C/C(C)=C/[C@@H]1CO[C@@H]1O[C@H](C)[C@@H](O)[C@@H](OC)[C@H]1OC [Tylosin]
Ki (MphB): 350 ± 160 µM
MIC [1]: 2 µg/mL (≈ 2.18 µM)

CC[C@H]1OC(=O)[C@H](C)[C@@H](O[C@H]2C[C@@](C)(OC)[C@@H](O)[C@H](C)O2)[C@H](C)[C@@H](O[C@@H]2O[C@H](C)C[C@H](N(C)C)[C@H]2O)[C@](C)(O)C[C@@H](C)CN(C)[C@H](C)[C@@H](O)[C@]1(C)O [azithromycin]
Km (MphI; 200 uM GTP): 56 ± 3 µM
X-ray crystal structure (MphH; macrolide-binding cleft, 5 mM azithromycin): MphH (Se-Met) azithromycin complex (5UXD)
MIC [1]: 0.063 µg/mL (≈ 0.0841 µM)

CC[C@H]1OC(=O)[C@H](C)[C@@H](O[C@H]2C[C@@](C)(OC)[C@@H](O)[C@H](C)O2)[C@H](C)[C@@H](O[C@@H]2O[C@H](C)C[C@H](N(C)C)[C@H]2O)[C@](C)(O)C[C@@H](C)C(=O)[C@H](C)[C@@H](O)[C@]1(C)O [erythromycin]
Km (MphI; 200 uM GTP): 110 ± 10 µM
MIC [1]: 0.5 µg/mL (≈ 0.681 µM)

CC[C@H]1OC(=O)[C@H](C)[C@@H](O[C@H]2C[C@@](C)(OC)[C@@H](O)[C@H](C)O2)[C@H](C)[C@@H](O[C@@H]2O[C@H](C)C[C@H](N(C)C)[C@H]2O)[C@](C)(O)C[C@@H](C)/C(=N\OCOCCOC)[C@H](C)[C@@H](O)[C@]1(C)O [roxithromycin]
Km (MphI; 200 uM GTP): 32 ± 4 µM
Ki (MphB): 960 ± 510 µM

CC[C@H]1OC(=O)[C@H](C)C(=O)[C@H](C)[C@@H](O[C@@H]2O[C@H](C)C[C@H](N(C)C)[C@H]2O)[C@](C)(OC)C[C@@H](C)C(=O)[C@H](C)[C@H]2N(CCCCn3cnc(-c4cccnc4)c3)C(=O)O[C@]12C [telithromycin]
Km (MphI; 200 uM GTP): 3 ± 0.5 µM
MIC [1]: 0.125 µg/mL (≈ 0.154 µM)

MphB (Escherichia coli O83:H1 str. NRG 857C)
Km [2]: 8.3 ± 0.45 µM
kcat [2]: 0.602 ± 0.008 s⁻¹
Km [3]: 2.9 ± 0.36 µM
kcat [3]: 0.189 ± 0.004 s⁻¹
Km [4]: 6.6 ± 1.8 µM
kcat [4]: 0.77 ± 0.04 s⁻¹
Km [5]: 1.6 ± 0.2 µM
kcat [5]: 0.0412 ± 0.0009 s⁻¹

MphK (Bacillus subtilis subsp. subtilis str. 168)
Km [6]: 6.3 ± 2.4 µM
kcat [6]: 0.0022 ± 0.0002 s⁻¹
kcat/Km [6]: 350 M⁻¹ s⁻¹
Km [7]: 100 ± 25 µM
kcat [7]: 0.005 ± 0.0004 s⁻¹
kcat/Km [7]: 49 M⁻¹ s⁻¹
Km [8]: 17 ± 1 µM
kcat [8]: 0.0491 ± 0.0004 s⁻¹
Km [9]: 940 ± 320 µM
kcat [9]: 0.025 ± 0.005 s⁻¹
Km [10]: 4.2 ± 0.45 µM
kcat [10]: 0.056 ± 0.001 s⁻¹
